Target: N1-MPP (recombinant neuraminidase: N1 globular head domain from A/Michigan/45/2015 (H1N1) fused to the measles virus phosphoprotein tetramerization domain, with hexahistidine tag) (measles virus | influenza A virus A/Michigan/45/2015 (H1N1))
Assay: SEC; […], pH 7.5, 0.4 mL/min, room temperature; […]

Substance: N1-MPP (recombinant neuraminidase: N1 globular head domain from A/Michigan/45/2015 (H1N1) fused to the measles virus phosphoprotein tetramerization domain, with hexahistidine tag) (enzyme)
- stoichiometry N: 4

From article PMC13198613
